# Earlier results in paper PMC10636758.
# pKd: −log10 of the molar value.
# Columns and labels:
# HP1α (Homo sapiens) = HP1α (Homo sapiens) (UniProt P45973)
# [1] = molecular target: Histone H3 peptide (Homo sapiens)
Substance,pKd (HP1α (Homo sapiens)),pKd [1]
HP1α (from UniProt P45973),> 6.00,–
HP1α CSD (from UniProt P45973),–,4.24
